The target in series [1] is T1, NAD(P)H oxidoreductase (Npo) (Amphibacillus xylanus, UniProt K0J097).
T1 construct: recombinant from E. coli DE3, pET101 TOPO, reverse primer keeps native stop (primers encode N-terminus MAKDF, C-terminus CENFK); 23 kDa; 1 mol FMN per subunit
T1 sequence (K0J097 1-199): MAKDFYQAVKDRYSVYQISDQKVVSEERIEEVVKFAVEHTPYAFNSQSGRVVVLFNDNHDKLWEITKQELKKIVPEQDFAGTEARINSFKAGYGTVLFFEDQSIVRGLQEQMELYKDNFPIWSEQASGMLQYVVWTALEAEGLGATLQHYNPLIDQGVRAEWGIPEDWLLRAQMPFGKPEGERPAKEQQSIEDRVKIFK
Kind of series: NADPH oxidation kinetics (details not told). The class given is biochemical. The settings on record: only an upper bound printed; conditions of this determination not told.

In series [2] the target is T1, NAD(P)H oxidoreductase (Npo). Kind of series: spectral analysis of FMN released from the protein by […] SDS. It is filed as binding. The settings on record: bound flavin cofactor, 1 mol FMN per subunit.
Substrate in the series “purified protein”: Cc1cc2nc3c(=O)[nH]c(=O)nc-3n(C[C@H](O)[C@H](O)[C@H](O)COP(=O)(O)OP(=O)(O)OC[C@H]3O[C@@H](n4cnc5c(N)ncnc54)[C@H](O)[C@@H]3O)c2cc1C
Kind of series: purified protein. The settings on record: 50 mM sodium phosphate pH 7.0, 0.5 mM EDTA, 25 °C, FAD 15-150 μM as free substrate. It is filed as biochemical, Amphibacillus xylanus.

Usually Km stands for the substrate concentration at which the rate is half of its maximum. As usually defined, the kcat is the number of substrate molecules converted per active site and unit of time at saturation. Broadly, the kcat/Km is the second-order rate constant that governs catalysis at low substrate concentration.

Take `NC(=O)C1=CN([C@@H]2O[C@H](COP(=O)(O)OP(=O)(O)OC[C@H]3O[C@@H](n4cnc5c(N)ncnc54)[C@H](OP(=O)(O)O)[C@@H]3O)[C@@H](O)[C@H]2O)C=CC1` [NADPH]: the Km in series [1] is less than 33 µM.

`Cc1cc2nc3c(=O)[nH]c(=O)nc-3n(C[C@H](O)[C@H](O)[C@H](O)COP(=O)(O)O)c2cc1C` [FMN]: in series [2], the “spectral analysis of FMN released from the protein by 0.1% SDS” value was “spectral analysis of free FMN, which was released from Npo protein”.

B1: NAD(P)H oxidoreductase (Npo) (Amphibacillus xylanus NBRC 15112) (protein)
chain: MAKDFYQAVKDRYSVYQISDQKVVSEERIEEVVKFAVEHTPYAFNSQSGRVVVLFNDNHDKLWEITKQELKKIVPEQDFAGTEARINSFKAGYGTVLFFEDQSIVRGLQEQMELYKDNFPIWSEQASGMLQYVVWTALEAEGLGATLQHYNPLIDQGVRAEWGIPEDWLLRAQMPFGKPEGERPAKEQQSIEDRVKIFK
notes: recombinant from E. coli DE3, pET101 TOPO, reverse primer keeps native stop (primers encode N-terminus MAKDF, C-terminus CENFK); 23 kDa; 1 mol FMN per subunit
For the molecule B1, in the series “purified protein” (150 μM NADPH), the Km was determined as 71 ± 10 µM, the kcat worked out at 1 ± 0.1 s⁻¹ and the kcat/Km came to 14000 ± 1000 M⁻¹ s⁻¹.

B2: NADH oxidase (Nox) (Amphibacillus xylanus NBRC 15112) (protein)
chain: MLDKDIKQQLEQYLALLENDIVIKVSVGDDKVSKDTLELVNEIADMSSMISVEETTLERTPSFSINRKGEPDSGVVFAGIPLGHEFTSLVLALLQVSGRAPKVEASVIDAIKKVEGKHDFVTYVSLTCQNCPDVVQALNLMSVVNPNITHTMVEGSAFKDEVDRLNILAVPSVYLNGEFMASGRMTIEDILGHLGSGIDASELNEKDPFDVLVIGGGPAGASSAIYAARKGIRVGIIADRFGGQVMDTLGIENFIGTKYTEGPKLISEIEQHVNEYNIDVMKGLRAHNIEKKDLFEVQLDNGAVLKSKTIILATGARWRDIGVPGEKEYKNKGVAYCTHCDAPLFEGKHVAVVGGGNSGIESALDLAGIVKHVTVFEFMSELKADAVLQERLRSLPNVDVILNAQTTEITGDETVKGISYIDRTTNEEKHVELQGAFIQIGLAPNTEWLGDTVERNQIGEIVIDKKGQTSVPGIFAAGDCTDTPYKQIIVSMGAGATAALGAFDYLLRN
Take B2: in “purified protein” (150 μM NADH), the Michaelis constant (Km) is 37 ± 3 µM, the kcat turned out to be 91 ± 8 s⁻¹ and the kcat/Km turned out to be 2.42e+06 ± 74000 M⁻¹ s⁻¹.

Source of the values: article PMC5986008, “Intracellular free flavin and its associated enzymes participate in oxygen and iron metabolism in Amphibacillus xylanus lacking a respiratory chain” (FEBS Open Bio, 2018).
